Experimental data taken from patent US20240018501A1, “HIGHER PERFORMANCE PROTEASES FOR SCARLESS PEPTIDE TAG REMOVAL” (priority 2017, published 2024).

Assays:
[1] = biological target: T1, LanA3 encoded by the genome of B. cereus VD156
T1 chain: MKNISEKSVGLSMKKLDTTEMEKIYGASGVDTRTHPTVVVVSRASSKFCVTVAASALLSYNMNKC

[2] = tested on: modified CylLS; experiment: Kinetic analysis of full length CylA and CylA-96-412 against modified CylLS (LC/MS); format: biochemical, Enterococcus faecalis
Method: Targeted peptides were dissolved in H2O to a final concentration of 3 mg/mL. To a 85 μL solution of peptides, 10 μL of 500 mM HEPES buffer (pH 7.5) was added followed by 5 μL of 0.5 mg/mL AspN protease (for modified CylLL and CylLS peptides), 0.1 mg/mL CylA protease (for modified and unmodified CylLL, CylLS peptides, and modified HalA2-GDVQAE peptide) or 0.1 mg/mL LicP protease (for LicA2). For cleavage tests of the engineered GDVQAE peptides, CylA was added to a final concentration of 0.01 mg/mL, whereas the peptide was added to a concentration of 0.3 mg/mL with 50 mM HEPES buffer (pH 7.5). The protease cleavage reaction mixtures were kept at 25° C. for 1 to 48 h. Osmotic pressure was adjusted with NaCl solution with a final concentration of 150 mM. The digested peptide mixture was directly used for antimicrobial and hemolytic assay. For the kinetic analysis of CylA and its mutant proteins, His6-CylA-27-412 and His6-CylA-27-412-E95A proteins were added to a final concentration of 500 ng/mL and 2.5 μg/mL (22 nM and 110 nM), respectively, with modified CylLS supplied at a concentration of 0.3 mg/mL (36 μM). The reactions were allowed to proceed at room temperature and were stopped by 1% TFA at different time points for LC/MS analysis. Halα and Halβ were obtained by factor Xa cleavage of modified HalA1Xa and HalA2 Xa peptides using the procedure of Y. Shi, et al. J. Am. Chem. Soc. 2011, 133, 2338. CylLL″ and CylLS″ were prepared in the same way using modified CylLL-E-1K and CylLS-E-1K peptides as described in W. Tang and W. A. van der Donk, Nat. Chem. Biol. 2013, 9, 157.
As full length CylA is not available due to its self-cleavage, His6-CylA-27-412-E95A was chosen to serve as a substituent of full length CylA as the self-cleavage was abolished whereas the conserved catalytic C-terminal region of CylA remained unchanged. To obtain the mature protease CylA-96-412, His6-CylA-27-412 was aged at 4° C. for 12 hours to allow the self-cleavage to proceed until CylA-96-412 was the dominant peak monitored by MALDI-TOF MS. The aged protein mixture was directly used as a substituent of CylA-96-412. To test the proteases' activities, CylA-96-412 and His6-CylA-27-412-E95A were supplied with a final concentration of 22 nM and 110 nM, respectively, with modified CylLS served at a concentration of 36 μM. The reactions were stopped at 3 minute, 6 minute, 12 minute and 24 minute by 1% TFA and the formation of mature CylLS″ was monitored by liquid chromatography MS (LC/MS). […] The production of core peptide was analyzed by extracted ion chromatography monitoring the desired product mass 1017 (M+2H^+).

[3] = biological target: modified CylLS
[4] = tested on: CylA; experiment: CylA self-cleavage (SDS-PAGE, MALDI-TOF MS); format: biochemical, Enterococcus faecalis
Method: E. coli BL21 (DE3) cells were transformed with pRSFDuet-1/CylA-27-412, pRSFDuet-1/CylA-27-412-E95A, pRSFDuet-1/CylA-27-412-S359A or pRSFDuet-1/LicP-25-433 vectors and plated on an LB plate containing 50 mg/L kanamycin. A single colony was picked and grown in 20 mL of LB with kanamycin at 37° C. for 12 h and the resulting culture was inoculated into 2 L of LB. Cells were cultured at 37° C. until the OD at 600 nm reached 0.5, cooled and IPTG was added to a final concentration of 0.1 mM. The cells were cultured at 18° C. for another 10 h before harvesting. The cell pellet was resuspended on ice in LanP start buffer (20 mM HEPES, 1 M NaCl, pH 7.5 at 25° C.) and lysed by homogenization. The lysed sample was centrifuged at 23,700×g for 30 min and the pellet was discarded. The supernatant was passed through 0.45-μm syringe filters and the protein was purified by immobilized metal affinity chromatography (IMAC) loaded with nickel as described in B. Li et al. Methods Enzymol. 2009, 458, 533. […] Protein concentration was quantified by its absorbance at 280 nm. The extinction coefficient for His6-CylA-27-412, His6-CylA-27-412-E95A and His6-CylA-27-412-S359A was calculated as 30,830 M^−1 cm^−1. The extinction coefficient for His6-LicP-25-433 was calculated as 46,300 M^−1 cm^−1. […]

[5] = biological target: dehydrated and cyclized LanA2 from B. licheniformis 9945A

B1: LanP of B. cereus VD156 (without signal sequence, with His6 tag) (protein)
chain: MGSSHHHHHHSQDPTQIAYYSILIRDNTDFNTVLDKLSKDNQEVVYSIPEVNLIQVKGEKGKIISGIGLESIEEINPSTGEFKTYTPNINDQKVLDNKAIWDVQWDIKRITNNGESYKLHSPSGKVSVALIDSGYPENHPDIKSISIQKSKNLVPKGGYKGNEENETGNIHQLTDRTGHGTSVLSQVNADGLMKGVAPGMPVNMYRVFGESSAEGSWIIKGIIEAAKDKNDVINISAGSYLLKNGTYSDGSGNNRAEIKAYEKAIHYANKKGSIVVSALGNDSININIYSELLSILNSKIKDEGKSATGIVQDIPAQLAQVVSVASTGMDSKVSSFSNYGKNIIDFTAPGGDIKLLNKFGADVWMAEEMFKKEMILVAHPQGGYYFNYGNSLATPKVSGALALVIDKYGYKNKPNKAINHLKRNTNAENEIDLYKALQE
cleavage by the corresponding LanP, MALDI-TOF MS [1]: the core peptide is detected ... and the leader peptide is also observed

B2: His6-CylA-27-412-E95A (protein)
chain: MKRIYIFLLCFAVLLPVGGKTAQAKEQAGEQYLLLEHVKDKSKLLDTAEQFHIHADVIEEIGFAKVTGEKQKLAPFTKKLAEKVGADVIEKPIANTAVNETESVISGSPAWGLDGILELKEYLWFAAKQTDSYRTYQIERGHPDVKVALIDSGLDLDHPDLKASVNTNGGWNYIDGKPVSGDPTGHGTQTAGMINIIAPDVTITPYQVLDEKGGDSYNIMKAMVDAVNDGHEVINISTGSYTSLDREGKVLMKAYQRAANYAAKHQVLVFSSAGNKGVNLDEMRKTENKVHLPSALKHVVSVGSNMKSNNISPYSNQGREIEFTAPGGYLGETYDQDGMVRVTDLVLTTYPKGKDNTALDQMLNIPKGYSLSYGTSLAAPQVAGTAALVISEYRERHHRKPSAKQVHHILRKSALDLGKPGKDVIYGYGEVRAYQALKMMNKE
cleavage of modified CylLS [2]: resulted in cleavage
lower rate of producing CylLS″ ([2]; enzyme 110 nM, modified CylLS 36 μM, versus CylA-96-412): ~10 fold
cleavage by His6-CylA-27-412-E95A [3]: Incubation of modified CylLS with His6-CylA-27-412-E95A resulted in cleavage
fold lower rate of producing CylLS″ than CylA-96-412 (LC/MS; 110 nM enzyme, 36 µM substrate) [3]: exhibited an approximate 10-fold lower rate of producing CylLS″
CylA self-cleavage during expression or purification [4]: only one band corresponding to the full length protein

B3: His6-CylA-27-412: CylA without secretion signal residues 1-26, N-terminal hexa-histidine tag, SEQ ID NO: 10 (protein)
chain: MGSSHHHHHHSQDPNSLSNNISFFIDNSQTTAIEEIESELSSEKVDYIQEIGLVSFKNLDDSDRKFIGKYFNVSEGKKLPDFKPEEVNSSILNINILNKDFKSFNWPYKKILSHIDPVKEQLGKDITIALIDSGIDRLHPNLQDNNLRLKNYVNDIELDEYGHGTQVAGVIDTIAPRVNLNSYKVMDGTDGNSINMLKAIVDATNDQVDIINVSLGSYKNMEIDDERFTVEAFRKVVNYARKNNILIVASAGNESRDISTGNEKHIPGGLESVITVGATKKSGDIADYSNYGSNVSIYGPAGGYGDNYKITGQIDAREMMMTYYPTSLVSPLGKAADFPDGYTLSFGTSLATPEVSAALAAIMSKNVDNSKDSNEVLNTLFENADSFIDKNSMLKYKEVRIK
modifications: N-terminal His6 tag; … PEPTIDE SEQUENCE FOR CylA with His6-tag, without the secretion signal peptide.
CylA self-cleavage during expression or purification [4]: cleavage event after residue Glu95

B4: LanP from B. licheniformis 9945A (without signal sequence, with His6 tag) (protein)
chain: MGSSHHHHHHSQDPDRYTIYLESPAHHDDWVKTLNERNIKLVYSVEEIGLYQIEGRQKEVQELAAEINYINSHNQSVAMQPASLHNTAPAEATIFGGTPTLWDDFQWDMRKATNNGQTYQITEGSKNTIVGIIDSGIDMNHPDLKENILSVRNFVPKGGLRGQEPYEKGDINDSTDYLGHGTFVAGQIAANGLMKGIAPETGIRSYRVFGGKSADTVWIIDAIIQAAIDDVDIINVSFGTFLVKQNRKNKQMPDTNDLAEIKAFKKAVSFAHKKGSAVVASIGNEGLDLKDKNAVFEYWRSTKQEDLSADGKVILIPAQLPNVVTVSSIGPSGMRSVFSNYGKNVVDIAADGGDLRLLNEVGEDRYYGEGLFRQEYILGAAPGVTYTFSIGTSIAAPKVSGALALLIDQKQLHDKPDKAVKILLKNADRNADKIDTGAGVLNVYRALTD
cleavage by the corresponding LanP, MALDI-TOF MS [5]: fully modified core peptide is observed after protease treatment (inset) ... the leader peptide is also observed
